Test results taken from US20140023585A1, “177 LUTETIUM-LABELED BOMBESIN ANALOGS FOR RADIOTHERAPY” (UNIVERSITATSSPITAL BASEL, priority 2010, published 2014).

Key:
[1] = 37° C., 5% CO2, up to 4 days of incubation
Description: The mixture was incubated in a 5% CO2, 37° C. environment. At different time points, 100-μL aliquots (in triplicate) were removed and treated with 200 μL of EtOH to precipitate serum proteins. Samples were then centrifuged for 15 min at 500 rpm. […] The supernatant was analyzed with HPLC (eluents: A=0.1% trifluoroacetic acid in water and B=acetonitrile; gradient: 0 min 95% of A; 20 minutes 50% of A) to determine the stability of the peptide in serum.

PC-3 tumors [2] = assay: Dosimetry by MIRD methodology from biodistribution data; type: in vivo; details: mice
Description: Doses of 150-200 Gy in the tumor could be achieved considering a maximum activity of 450 MBq to be injected per animal. Kidneys were not critical instead it was the pancreas to be the dose limiting organ. (In contrast to rodent pancreas, human pancreas expresses only very low amounts of the GRPr.)

PC-3 tumors [3] = assay: in vivo; details: i.v.
Description: Biodistribution was investigated in NMRI nude mice bearing subcutaneous PC-3 tumors in the right hind limb at different time-points. Body weight of the male mice was approx. 30 g, 3 animals were investigated per time-point. After injecting an intravenous dose into the tail vein, mice were sacrificed at indicated time points and dissected organs were analyzed by radioactive counting. An administration dose of 100 μL was applied per animal with a mean activity of 86 kBq.
At indicated time points urine and feces were quantitatively collected. At the same time points, animals were sacrificed and exsanguinations under isoflurane anesthesia and the following organs and tissues were removed for measurement of [^177Lu] using the gamma-counter: spleen, liver, gallbladder, kidneys, lung, femur, heart, brain, fat, thyroid, muscle, skin, blood, tail, stomach (without content), prostate, intestine (with content), pancreas, adrenals, and the remaining body (designated as carcass).
Whole organs and tissues or aliquots were weighted and measured in a gamma-counter for radioactivity. In order to get the amount of total radioactivity administered in each animal (=100%) 3 aliquots (100 μL each) of the injected solution were always measured in parallel. The results of the biodistribution and excretion are reported as percent of injected dose per gram of tissue (% ID/g) and percent of injected dose per organ (% ID), respectively. All data are given as mean value±standard deviation, which were calculated by using all animals per time and sample.

CC(C)C[C@H](NC(=O)C[C@H](O)[C@H](CC(C)C)NC(=O)[C@H](Cc1c[nH]cn1)NC(=O)CNC(=O)[C@@H](NC(=O)[C@H](C)NC(=O)[C@H](Cc1c[nH]c2ccccc12)NC(=O)[C@H](CCC(N)=O)NC(=O)[C@@H](Cc1ccccc1)NC(=O)CN1CCC(NC(=O)CN2CCN(CC(=O)O)CCN(CC(=O)O)CCN(CC(=O)O)CC2)CC1)C(C)C)C(N)=O [compound 2, [^177Lu]-DOTA-4-amino-1-carboxymethylpiperidine-D-Phe-Gln-Trp-Ala-Val-Gly-His-Sta-Leu-NH2, metal not drawn]
stability in human serum [1]: remarkable stability | dose limiting organ (PC-3 tumors [2]): pancreas | % ID Gallbladder (PC-3 tumors [3]; 1.0 h p.a.): 0.000 % ID | % ID/g Kidney (PC-3 tumors [3]; 1.0 h p.a.): 1.72 (±0.45) % ID/g | % ID/g Tumor (PC-3 tumors [3]; 1.0 h p.a.): 5.60 (±1.66) % ID/g | % ID Gallbladder (PC-3 tumors [3]; 4.0 h p.a.): 0.000 % ID | % ID/g Kidney (PC-3 tumors [3]; 24.0 h p.a.): 0.57 (±0.21) % ID/g | % ID/g Liver (PC-3 tumors [3]; 24.0 h p.a.): 0.05 (±0.01) % ID/g | % ID/g Tumor (PC-3 tumors [3]; 24.0 h p.a.): 6.06 (±1.53) % ID/g
